These results are taken from patent US20160340439A1.

Holding throughout (assay): IP + mass spec of B16 melanoma proteins; ratio to alloIgG
The target in assay [1] is Mitochondrial inner membrane protein (mouse) (UniProt Q8CAQ8).
The target of assay [2] is Fibrous sheath-interacting protein 2 (mouse) (UniProt A2ARZ3).
Assay [3] addresses Translocation protein SEC62 (mouse) (UniProt Q8BU14).
Assay [4] deals with Vacuolar protein sorting-associated protein 35 (mouse) (UniProt Q9EQH3).
Assay [5] deals with Arginine and glutamate-rich protein 1 (mouse) (UniProt Q3UL36).
The target of assay [6] is CDGSH iron-sulfur domain-containing protein 1 (mouse) (UniProt Q91WS0).
The target in assay [7] is Stromal cell-derived factor 2-like protein 1 (mouse) (UniProt Q9ESP1).
In assay [8] the target is Trifunctional enzyme subunit beta, mitochondrial (mouse) (UniProt Q99JY0).
Assay [9] concerns the target Nicalin (mouse) (UniProt Q8VCM8).
In assay [10] the target is Disco-interacting protein 2 homolog B (mouse) (UniProt Q3UH60).
For assay [11], the target named is Angiomotin-like protein 2 (mouse) (UniProt Q8K371).
Chain of UniProt Q8K371 (Q8K371 whole entry): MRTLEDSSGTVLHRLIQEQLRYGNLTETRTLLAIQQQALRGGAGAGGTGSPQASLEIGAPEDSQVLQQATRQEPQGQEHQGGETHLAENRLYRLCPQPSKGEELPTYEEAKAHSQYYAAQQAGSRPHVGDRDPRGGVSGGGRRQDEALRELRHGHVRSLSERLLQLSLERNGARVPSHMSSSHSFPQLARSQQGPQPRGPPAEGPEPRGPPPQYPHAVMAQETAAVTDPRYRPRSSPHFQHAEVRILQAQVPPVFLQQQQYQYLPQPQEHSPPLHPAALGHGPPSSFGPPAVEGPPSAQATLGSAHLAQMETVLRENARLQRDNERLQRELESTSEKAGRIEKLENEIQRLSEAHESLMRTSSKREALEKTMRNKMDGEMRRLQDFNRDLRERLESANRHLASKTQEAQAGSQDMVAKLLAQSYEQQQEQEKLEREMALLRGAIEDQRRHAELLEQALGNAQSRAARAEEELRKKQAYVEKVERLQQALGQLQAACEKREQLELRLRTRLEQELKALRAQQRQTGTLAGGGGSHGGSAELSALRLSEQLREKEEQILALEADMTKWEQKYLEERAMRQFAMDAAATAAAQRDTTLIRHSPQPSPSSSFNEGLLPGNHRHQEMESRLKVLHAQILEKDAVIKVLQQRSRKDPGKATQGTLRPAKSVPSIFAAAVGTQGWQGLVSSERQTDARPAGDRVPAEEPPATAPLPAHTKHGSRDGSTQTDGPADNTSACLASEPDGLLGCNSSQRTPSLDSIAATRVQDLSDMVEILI

Chain of UniProt Q3UH60 (Q3UH60 whole entry): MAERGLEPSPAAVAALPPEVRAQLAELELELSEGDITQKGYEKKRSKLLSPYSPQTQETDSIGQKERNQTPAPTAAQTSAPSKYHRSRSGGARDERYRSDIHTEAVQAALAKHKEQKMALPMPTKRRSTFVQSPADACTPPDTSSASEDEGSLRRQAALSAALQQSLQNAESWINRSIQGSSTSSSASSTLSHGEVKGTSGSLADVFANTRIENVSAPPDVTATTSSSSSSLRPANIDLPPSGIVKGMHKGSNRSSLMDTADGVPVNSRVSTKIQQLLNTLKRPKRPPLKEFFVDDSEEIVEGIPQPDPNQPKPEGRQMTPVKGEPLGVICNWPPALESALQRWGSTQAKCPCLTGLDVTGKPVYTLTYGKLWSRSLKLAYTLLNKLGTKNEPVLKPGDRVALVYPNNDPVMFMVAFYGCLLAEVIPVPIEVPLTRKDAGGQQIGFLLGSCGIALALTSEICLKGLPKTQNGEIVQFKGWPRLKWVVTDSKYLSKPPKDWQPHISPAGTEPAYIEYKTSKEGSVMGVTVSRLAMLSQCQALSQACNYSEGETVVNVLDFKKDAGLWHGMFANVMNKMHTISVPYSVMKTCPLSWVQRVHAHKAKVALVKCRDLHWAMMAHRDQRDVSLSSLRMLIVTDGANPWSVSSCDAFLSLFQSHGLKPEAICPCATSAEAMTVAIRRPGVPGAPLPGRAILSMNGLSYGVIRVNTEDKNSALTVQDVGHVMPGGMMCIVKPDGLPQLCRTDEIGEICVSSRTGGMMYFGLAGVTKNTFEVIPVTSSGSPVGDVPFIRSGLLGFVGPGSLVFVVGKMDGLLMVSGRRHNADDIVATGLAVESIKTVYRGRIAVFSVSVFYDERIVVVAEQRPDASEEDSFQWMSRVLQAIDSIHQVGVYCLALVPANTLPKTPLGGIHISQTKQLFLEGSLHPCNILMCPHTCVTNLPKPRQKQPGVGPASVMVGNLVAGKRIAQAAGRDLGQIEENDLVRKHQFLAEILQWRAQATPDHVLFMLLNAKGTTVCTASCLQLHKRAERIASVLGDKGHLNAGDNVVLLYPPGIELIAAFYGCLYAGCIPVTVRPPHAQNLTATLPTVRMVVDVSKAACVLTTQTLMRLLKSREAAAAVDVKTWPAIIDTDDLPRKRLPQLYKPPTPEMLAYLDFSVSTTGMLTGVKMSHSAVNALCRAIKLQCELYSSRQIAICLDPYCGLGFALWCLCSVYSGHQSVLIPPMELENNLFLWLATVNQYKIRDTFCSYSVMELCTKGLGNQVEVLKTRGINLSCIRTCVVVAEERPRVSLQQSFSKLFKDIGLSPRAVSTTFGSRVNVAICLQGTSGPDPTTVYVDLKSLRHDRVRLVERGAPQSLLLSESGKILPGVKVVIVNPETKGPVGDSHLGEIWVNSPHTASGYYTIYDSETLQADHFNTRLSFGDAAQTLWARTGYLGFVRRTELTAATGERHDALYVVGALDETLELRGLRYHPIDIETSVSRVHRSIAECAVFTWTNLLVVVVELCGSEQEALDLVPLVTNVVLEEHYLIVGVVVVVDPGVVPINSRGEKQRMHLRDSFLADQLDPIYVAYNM
Chain of UniProt Q99JY0 (Q99JY0 35-475 limits assumed): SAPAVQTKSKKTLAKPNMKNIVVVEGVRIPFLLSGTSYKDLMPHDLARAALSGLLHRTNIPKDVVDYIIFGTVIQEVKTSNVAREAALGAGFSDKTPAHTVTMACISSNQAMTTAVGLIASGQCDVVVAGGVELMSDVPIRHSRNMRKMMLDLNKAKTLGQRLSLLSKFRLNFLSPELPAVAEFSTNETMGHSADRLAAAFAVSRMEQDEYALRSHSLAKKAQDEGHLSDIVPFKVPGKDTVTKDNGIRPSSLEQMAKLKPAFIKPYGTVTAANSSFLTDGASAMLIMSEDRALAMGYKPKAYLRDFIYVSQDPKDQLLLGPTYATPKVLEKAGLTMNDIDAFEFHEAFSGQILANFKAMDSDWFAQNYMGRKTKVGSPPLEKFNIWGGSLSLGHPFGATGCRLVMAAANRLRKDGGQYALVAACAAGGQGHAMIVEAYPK
Chain of UniProt Q8BU14 (Q8BU14 whole entry): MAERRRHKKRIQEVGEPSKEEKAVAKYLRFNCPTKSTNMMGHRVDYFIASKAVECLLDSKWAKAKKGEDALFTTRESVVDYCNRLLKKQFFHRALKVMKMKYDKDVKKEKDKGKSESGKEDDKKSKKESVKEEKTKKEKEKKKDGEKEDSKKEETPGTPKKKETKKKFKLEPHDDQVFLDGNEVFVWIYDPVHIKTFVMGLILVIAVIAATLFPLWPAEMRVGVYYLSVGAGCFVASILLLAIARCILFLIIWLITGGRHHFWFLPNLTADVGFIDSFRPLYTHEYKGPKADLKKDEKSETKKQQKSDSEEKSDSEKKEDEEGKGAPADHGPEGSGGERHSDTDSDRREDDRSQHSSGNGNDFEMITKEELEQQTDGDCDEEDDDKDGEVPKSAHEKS
Chain of UniProt Q8VCM8 (Q8VCM8 43-563 limits assumed): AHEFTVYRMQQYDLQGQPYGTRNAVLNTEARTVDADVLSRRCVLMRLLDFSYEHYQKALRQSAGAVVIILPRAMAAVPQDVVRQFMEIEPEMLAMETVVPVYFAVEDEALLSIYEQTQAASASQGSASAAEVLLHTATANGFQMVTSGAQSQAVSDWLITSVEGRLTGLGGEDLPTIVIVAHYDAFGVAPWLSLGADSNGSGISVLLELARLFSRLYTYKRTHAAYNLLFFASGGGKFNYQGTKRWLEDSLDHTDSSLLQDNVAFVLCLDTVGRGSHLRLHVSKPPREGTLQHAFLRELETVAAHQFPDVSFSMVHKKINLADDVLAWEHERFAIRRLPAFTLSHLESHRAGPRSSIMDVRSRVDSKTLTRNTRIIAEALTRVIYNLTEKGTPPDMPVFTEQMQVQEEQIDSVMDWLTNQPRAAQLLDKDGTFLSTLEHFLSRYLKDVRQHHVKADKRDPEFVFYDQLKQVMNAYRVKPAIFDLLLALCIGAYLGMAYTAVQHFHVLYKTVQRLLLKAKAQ
Chain of UniProt Q3UL36 (Q3UL36 whole entry, the tested form may be a part): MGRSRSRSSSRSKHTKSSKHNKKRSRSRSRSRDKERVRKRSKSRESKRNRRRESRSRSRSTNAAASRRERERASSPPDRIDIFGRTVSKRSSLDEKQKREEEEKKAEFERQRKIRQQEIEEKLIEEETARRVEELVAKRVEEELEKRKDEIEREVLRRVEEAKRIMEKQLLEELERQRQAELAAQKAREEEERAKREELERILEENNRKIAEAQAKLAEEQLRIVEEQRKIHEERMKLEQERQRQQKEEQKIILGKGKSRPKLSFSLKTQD
Chain of UniProt Q91WS0 (Q91WS0 whole entry, the tested form may be a part): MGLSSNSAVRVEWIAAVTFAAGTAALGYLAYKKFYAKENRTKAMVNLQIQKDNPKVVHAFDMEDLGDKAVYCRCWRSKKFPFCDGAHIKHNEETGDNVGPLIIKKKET
Chain of UniProt Q8CAQ8 (Q8CAQ8 34-757 limits assumed): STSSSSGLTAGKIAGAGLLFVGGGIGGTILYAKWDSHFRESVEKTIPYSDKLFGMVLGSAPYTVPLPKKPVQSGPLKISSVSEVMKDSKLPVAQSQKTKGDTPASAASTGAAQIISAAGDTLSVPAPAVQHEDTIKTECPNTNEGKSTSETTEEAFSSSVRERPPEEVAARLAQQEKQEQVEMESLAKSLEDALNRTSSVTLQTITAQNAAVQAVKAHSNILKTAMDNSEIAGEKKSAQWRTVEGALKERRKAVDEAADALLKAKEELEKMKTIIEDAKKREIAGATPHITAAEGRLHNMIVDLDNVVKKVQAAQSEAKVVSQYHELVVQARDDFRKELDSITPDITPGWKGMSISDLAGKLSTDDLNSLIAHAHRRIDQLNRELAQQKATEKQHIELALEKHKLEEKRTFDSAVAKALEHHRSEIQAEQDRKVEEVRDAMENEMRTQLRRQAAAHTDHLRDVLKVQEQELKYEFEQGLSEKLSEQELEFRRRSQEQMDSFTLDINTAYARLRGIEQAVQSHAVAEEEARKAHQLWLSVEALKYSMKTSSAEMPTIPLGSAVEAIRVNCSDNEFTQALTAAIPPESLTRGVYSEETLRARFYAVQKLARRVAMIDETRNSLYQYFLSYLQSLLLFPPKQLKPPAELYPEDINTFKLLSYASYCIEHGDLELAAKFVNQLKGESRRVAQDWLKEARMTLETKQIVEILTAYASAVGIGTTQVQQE
Chain of UniProt Q9ESP1 (Q9ESP1 29-221 limits assumed): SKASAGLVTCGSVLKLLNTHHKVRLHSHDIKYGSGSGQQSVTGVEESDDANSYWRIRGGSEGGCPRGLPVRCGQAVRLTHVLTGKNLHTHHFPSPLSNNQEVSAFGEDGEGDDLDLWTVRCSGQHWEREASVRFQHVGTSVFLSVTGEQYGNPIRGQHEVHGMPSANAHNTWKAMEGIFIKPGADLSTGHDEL

As for “syngeneic IgG (from sera of C57B1/6 mice) (antibody)”, the syn/allo ratio in [1] stood at 2.99; in [2], 9; in assay [3] it was 4; in assay [4], 2; in assay [5] it was 2; in [6] it was 2. The syn/allo ratio in assay [7] was found to be 3; in [8] it was 2.6; in assay [9] it was 2; in assay [10] it was 4; in assay [11], 6.
